Experimental data reported in paper PMC11401937 (Nature Communications, 2024).

Target: the molecule itself
Assay: cryo-EM structure

B1: Human Best1 protein purified for cryo-EM (GABA-bound pentamer) (natural protein)
chain: TITYTSQVANARLGSFSRLLLCWRGSIYKLLYGEFLIFLLCYYIIRFIYRLALTEEQQLMFEKLTLYCDSYIQLIPISFVLGFYVTLVVTRWWNQYENLPWPDRLMSLVSGFVEGKDEQGRLLRRTLIRYANLGNVLILRSVSTAVYKRFPSAQHLVQAGFMTPAEHKQLEKLSLPHNMFWVPWVWFANLSMKAWLGGRIRDPILLQSLLNEMNTLRTQCGHLYAYDWISIPLVYTQVVTVAVYSFFLTCLVGRQFLNPAKAYPGHELDLVVPVFTFLQFFFYVGWLKVAEQLINPFGEDDDDFETNWIVDRNLQVSLLAVDEMHQDLPRMEPDMYWNKPEPQPPYTAASAQFRRASFMGSTFNISLNKEEMEFQPNQEDEEDAHAGIIGRFLGLQSHDHHPPRANSRTKLLWPKRESLLHEGLPKNHKAAKQNVRGQEDNKAWKLKAVDAFKSAPLYQRPGYYSAPQTPLSPTPMFFPLEPSAPSKLHSVTGIDTKDKSLKTVSSGAKKSFELLSESDGALMEHPEVSQVRRKTVEFNLTDMPEIPENHLKEPLEQSPTNIHTTLKDHMDPYWALENRDEAHS
stoichiometry N: 5
